Where two headings read alike, the source gives them in different places.
T1: IFIT5 (UniProt Q13325 1-482)
T1 sequence: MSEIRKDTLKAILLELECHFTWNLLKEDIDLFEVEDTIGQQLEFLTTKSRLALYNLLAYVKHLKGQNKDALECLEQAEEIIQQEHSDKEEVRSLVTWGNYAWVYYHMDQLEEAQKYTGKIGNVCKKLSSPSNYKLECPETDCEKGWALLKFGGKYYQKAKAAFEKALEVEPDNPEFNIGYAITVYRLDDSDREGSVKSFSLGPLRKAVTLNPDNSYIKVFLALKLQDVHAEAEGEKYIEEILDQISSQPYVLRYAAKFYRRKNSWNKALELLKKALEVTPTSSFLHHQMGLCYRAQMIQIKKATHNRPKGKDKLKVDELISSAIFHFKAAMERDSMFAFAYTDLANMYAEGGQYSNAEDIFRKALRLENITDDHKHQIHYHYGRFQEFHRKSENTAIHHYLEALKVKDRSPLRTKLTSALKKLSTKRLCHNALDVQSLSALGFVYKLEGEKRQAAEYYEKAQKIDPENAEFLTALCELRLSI

T2: IFIT1 (UniProt P09914 1-478)
T2 sequence: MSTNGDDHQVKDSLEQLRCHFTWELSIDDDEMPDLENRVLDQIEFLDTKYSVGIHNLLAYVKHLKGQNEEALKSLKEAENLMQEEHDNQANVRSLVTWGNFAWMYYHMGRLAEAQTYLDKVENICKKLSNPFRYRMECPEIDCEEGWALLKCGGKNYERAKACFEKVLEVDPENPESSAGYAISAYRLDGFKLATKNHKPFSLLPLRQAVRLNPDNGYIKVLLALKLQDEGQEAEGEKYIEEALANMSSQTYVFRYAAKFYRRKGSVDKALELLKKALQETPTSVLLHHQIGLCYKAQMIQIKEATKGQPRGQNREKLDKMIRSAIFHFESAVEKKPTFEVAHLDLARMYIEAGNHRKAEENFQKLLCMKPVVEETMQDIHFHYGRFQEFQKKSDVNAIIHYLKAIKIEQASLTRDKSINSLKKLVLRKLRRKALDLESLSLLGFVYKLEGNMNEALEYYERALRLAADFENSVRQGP


Experiments:
Assay in all cases: BLI
[1] = target: T1, IFIT5
[2] = target: T2, IFIT1
[3] = target: T1, IFIT5; remark: listed apart in the source

Binder	Kd [2]	further results
AGGAGACCGGCCUCGA (ssRNA, 5' NADH cap (first A is the NADH adenosine, inferred)) [NADH-16ntRNA]	–	binding result [1]: binds
AGGAGACCGGCCUCGA (ssRNA, 5' triphosphate) [pppA-16ntRNA]	23.4 nM	–
AGGAGACCGGCCUCGA (ssRNA, 5' GpppA cap (unmethylated; cap G not in strand)) [GpppA-16ntRNA]	2.65 nM	–
AGGAGACCGGCCUCGA (ssRNA, 5' m7GpppA cap 0) [m7GpppAG-16ntRNA (m7GpppA)]	6.12 nM	–
AGGAGACCGGCCUCGA (ssRNA, 5' NAD+ cap (first A is the NAD adenosine, inferred)) [NAD+-16ntRNA]	–	binding result [3]: binds
AGGAGACCGGCCUCGA (ssRNA, 5' m7GpppAm cap 1 (2'-O-methyl A1)) [m7GpppAmG-16ntRNA]	44 nM	–

— publication PMC6913129
